Data on four molecules can be found in patent publication US6949366 (Amgen, dated 2005).

Test [1] deals with T1, soluble rat elk/Fc fusion protein (rat; human, UniProt P09759 18-540; P01857 99-330 = IgG part, limits assumed).
T1 construct: extracellular domain;domain: Fc region; The junction between elk and Fc is not described
In words: indirect Scatchard binding: elk/Fc titrated on CV1-EBNA-1 cells expressing elk-L, detected with 125I mouse anti-human IgG.

Test [2] has as its target T1, soluble rat elk/Fc fusion protein. In words: indirect Scatchard binding: elk/Fc titrated on CV1-EBNA-1 cells expressing hek-L A2, detected with 125I mouse anti-human IgG; biphasic, second component.
Test [3] shares this target. In words: indirect Scatchard binding: elk/Fc titrated on CV1-EBNA-1 cells expressing hek-L A2, detected with 125I mouse anti-human IgG; biphasic, first component.
For test [4] the target is unchanged. In words: indirect Scatchard binding: elk/Fc titrated on CV1-EBNA-1 cells expressing hek-L C6, detected with 125I mouse anti-human IgG; biphasic, first component.
Test [5] shares this target. In words: indirect Scatchard binding: elk/Fc titrated on CV1-EBNA-1 cells expressing hek-L C6, detected with 125I mouse anti-human IgG; biphasic, second component.
Test [6] shares this target. In words: indirect Scatchard binding: elk/Fc titrated on CV1-EBNA-1 cells expressing B61, detected with 125I mouse anti-human IgG; biphasic, first component (the cell prints 23, the text at paragraph 137 prints 2.3).
Test [7] shares this target. In words: indirect Scatchard binding: elk/Fc titrated on CV1-EBNA-1 cells expressing B61; biphasic, first component as the text prints it (differs from the table's cell).
For test [8] the target is unchanged. In words: indirect Scatchard binding: elk/Fc titrated on CV1-EBNA-1 cells expressing B61, detected with 125I mouse anti-human IgG; biphasic, second component.

T1 sequence (P09759 other isoform, or with tags, fused parts or gaps limits assumed): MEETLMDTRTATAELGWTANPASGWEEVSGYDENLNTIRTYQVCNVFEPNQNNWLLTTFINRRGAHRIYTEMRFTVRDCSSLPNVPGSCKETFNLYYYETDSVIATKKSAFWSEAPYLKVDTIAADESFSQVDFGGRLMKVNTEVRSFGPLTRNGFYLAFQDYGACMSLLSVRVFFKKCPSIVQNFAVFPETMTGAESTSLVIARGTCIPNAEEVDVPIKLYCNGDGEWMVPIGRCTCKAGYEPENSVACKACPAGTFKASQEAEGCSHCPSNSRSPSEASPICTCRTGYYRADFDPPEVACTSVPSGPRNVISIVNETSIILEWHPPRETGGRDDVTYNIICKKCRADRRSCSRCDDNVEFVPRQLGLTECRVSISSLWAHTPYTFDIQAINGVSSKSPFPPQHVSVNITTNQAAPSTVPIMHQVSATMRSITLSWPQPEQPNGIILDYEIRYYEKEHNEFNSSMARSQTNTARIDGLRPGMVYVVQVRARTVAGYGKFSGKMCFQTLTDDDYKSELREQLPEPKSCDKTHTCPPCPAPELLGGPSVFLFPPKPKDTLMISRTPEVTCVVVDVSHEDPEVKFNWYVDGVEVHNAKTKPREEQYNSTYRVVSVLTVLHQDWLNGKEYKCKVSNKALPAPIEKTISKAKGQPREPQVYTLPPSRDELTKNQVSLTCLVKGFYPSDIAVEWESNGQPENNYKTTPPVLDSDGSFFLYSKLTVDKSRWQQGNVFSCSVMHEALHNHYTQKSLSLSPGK

B1: human elk ligand (ligand, UniProt P98172 28-346, looked up)
chain: LAKNLEPVSWSSLNPKFLSGKGLVIYPKIGDKLDIICPRAEAGRPYEYYKLYLVRPEQAAACSTVLDPNVLVTCNRPEQEIRFTIKFQEFSPNYMGLEFKKHHDYYITSTSNGSLEGLENREGGVCRTRTMKIIMKVGQDPNAVTPEQLTTSRPSKEADNTVKMATQAPGSRGSLGDSDGKHETVNQEEKSGPGASGGSSGDPDGFFNSKVALFAAVGAGCVIFLLIIIFLTVLLLKLRKRHRKHTQQRAAALSLSTLASPKGGSGTAGTEPSDIIIPLRTTENNYCPHYEKVSGDYGHPVYIVQEMPPQSPANIYYKV
notes: whole, on cells
For the molecule B1, the Ka in test [1] turned out to be 1.08e+09 M⁻¹.

B2: human hek ligand encoded by clone A2 (ligand)
chain: LLAQGPGGALGNRHAVYWNSSNQHLRREGYTVQVNVNDYLDIYCPHYNSSGVGPGAGPGPGGGAEQYVLYMVSRNGYRTCNASQGFKRWECNRPHAPHSPIKFSEKFQRYSAFSLGYEFHAGHEYYYISTPTHNLHWKCLRMKVFVCCASTSHSGEKPVPTLPQFTMGPNVKINVLEDFEGENPQVPKLEKSIS
modifications: GPI anchor at the C-terminus after cleavage (likely on Ser 194 in the filing's numbering; site not determined)
notes: Expressed from the full-length clone A2 cDNA in pDC410 on CV1-EBNA-1 cells and held on the membrane by a GPI anchor; also called hek-L A2; hek ligand A2
As for B2, the Ka came to 3.5e+07 M⁻¹ in test [2] and 2.7e+08 M⁻¹ in test [3].

B3: human hek ligand encoded by clone C6 (ligand)
chain: GSSLRHVVYWNSSNPRLLRGDAVVELGLNDYLDIVCPHYEGPGPPEGPETFALYMVDWPGYESCQAEGPRAYKRWVCSLPFGHVQFSEKIQRFTPFSLGFEFLPGETYYYISVPTPESSGQCLRLQVSVCCKERKSESAHPVGSPGES
modifications: GPI anchor at the C-terminus after cleavage (likely on Ser 148 in the filing's numbering; site not determined)
notes: Expressed from the full-length clone C6 cDNA in pDC410 on CV1-EBNA-1 cells and held on the membrane by a GPI anchor; also called hek-L C6; hek ligand C6
In the case of B3, the Ka in test [4] came to 1.3e+08 M⁻¹; in test [5], 5.4e+07 M⁻¹.

B4: human B61 (ligand, UniProt P20827 19-182, looked up)
chain: DRHTVFWNSSNPKFRNEDYTIHVQLNDYVDIICPHYEDHSVADAAMEQYILYLVEHEEYQLCQPQSKDQVRWQCNRPSAKHGPEKLSEKFQRFTPFTLGKEFKEGHSYYYISKPIHQHEDRCLRLKVTVSGKITHSPQAHDNPQEKRLAADDPEVRVLHSIGHS
notes: whole, on cells
As for B4, the figures for the Ka in test [6], in test [7] and in test [8] were 2.3e+09 M⁻¹, 2.3e+08 M⁻¹ and 7e+07 M⁻¹, respectively.
